Data on 6 sequences can be found in patent US20220396813.

Holding throughout (test): cell_activity
Data set [1] concerns T1, Rec13 WP_126045042.1 (Candidatus Aquarickettsia).
T1 sequence: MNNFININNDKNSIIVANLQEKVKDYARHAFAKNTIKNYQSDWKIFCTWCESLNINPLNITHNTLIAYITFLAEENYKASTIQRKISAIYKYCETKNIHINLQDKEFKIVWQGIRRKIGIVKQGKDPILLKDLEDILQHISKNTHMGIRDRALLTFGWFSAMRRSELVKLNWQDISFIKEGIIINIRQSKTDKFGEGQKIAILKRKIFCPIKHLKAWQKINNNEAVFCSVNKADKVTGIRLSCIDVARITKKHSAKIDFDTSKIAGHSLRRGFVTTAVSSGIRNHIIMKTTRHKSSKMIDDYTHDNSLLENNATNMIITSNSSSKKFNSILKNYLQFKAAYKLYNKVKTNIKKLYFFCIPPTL
The conditions noted are these: HEK293T inversion; background 5.795.

Data set [2] deals with T2, Rec11 WP_038150996.1 (Veillonella montpellierensis).
T2 sequence: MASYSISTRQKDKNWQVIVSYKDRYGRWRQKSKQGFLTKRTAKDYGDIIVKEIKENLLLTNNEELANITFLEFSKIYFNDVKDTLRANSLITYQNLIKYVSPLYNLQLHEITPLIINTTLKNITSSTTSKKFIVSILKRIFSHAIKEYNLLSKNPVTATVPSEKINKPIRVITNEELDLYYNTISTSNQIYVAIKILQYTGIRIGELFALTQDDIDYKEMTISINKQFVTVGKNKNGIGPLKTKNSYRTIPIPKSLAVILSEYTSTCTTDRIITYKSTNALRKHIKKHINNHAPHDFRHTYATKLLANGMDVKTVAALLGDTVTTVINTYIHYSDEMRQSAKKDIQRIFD
The note with it: HEK293T inversion; background 0.07465.

In data set [3] the test system is T3, Rec12 WP_038150898.1 (Veillonella montpellierensis).
T3 sequence: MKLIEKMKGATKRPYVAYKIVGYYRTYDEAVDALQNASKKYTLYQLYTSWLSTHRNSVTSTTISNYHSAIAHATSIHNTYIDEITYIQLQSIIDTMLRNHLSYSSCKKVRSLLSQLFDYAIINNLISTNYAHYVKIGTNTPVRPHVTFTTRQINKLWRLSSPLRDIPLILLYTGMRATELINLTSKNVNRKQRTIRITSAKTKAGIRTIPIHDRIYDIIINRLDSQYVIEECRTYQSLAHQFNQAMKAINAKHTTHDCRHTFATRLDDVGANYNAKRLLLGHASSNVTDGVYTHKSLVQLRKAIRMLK
The conditions noted are these: HEK293T inversion; background 0.07465.

Data set [4] concerns T4, Rec2 WP_006717173.1 (Aggregatibacter segnis).
T4 sequence: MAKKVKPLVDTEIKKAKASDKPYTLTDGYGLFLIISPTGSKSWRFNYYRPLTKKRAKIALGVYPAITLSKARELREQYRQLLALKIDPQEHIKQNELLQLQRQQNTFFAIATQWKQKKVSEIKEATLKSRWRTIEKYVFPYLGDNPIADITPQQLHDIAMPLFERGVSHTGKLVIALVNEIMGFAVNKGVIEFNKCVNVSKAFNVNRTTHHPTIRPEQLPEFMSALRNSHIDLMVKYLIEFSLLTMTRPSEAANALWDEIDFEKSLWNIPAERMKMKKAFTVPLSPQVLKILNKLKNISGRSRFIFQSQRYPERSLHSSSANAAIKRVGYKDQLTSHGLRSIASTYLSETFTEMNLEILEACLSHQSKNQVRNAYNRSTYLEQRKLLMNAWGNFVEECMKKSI
The note with it: HEK293T inversion; background 0.2565; repeat 0.27 vs 0.265.

The test system of data set [5] is T5, Rec3 WP_006718580.1 (Aggregatibacter segnis).
T5 sequence: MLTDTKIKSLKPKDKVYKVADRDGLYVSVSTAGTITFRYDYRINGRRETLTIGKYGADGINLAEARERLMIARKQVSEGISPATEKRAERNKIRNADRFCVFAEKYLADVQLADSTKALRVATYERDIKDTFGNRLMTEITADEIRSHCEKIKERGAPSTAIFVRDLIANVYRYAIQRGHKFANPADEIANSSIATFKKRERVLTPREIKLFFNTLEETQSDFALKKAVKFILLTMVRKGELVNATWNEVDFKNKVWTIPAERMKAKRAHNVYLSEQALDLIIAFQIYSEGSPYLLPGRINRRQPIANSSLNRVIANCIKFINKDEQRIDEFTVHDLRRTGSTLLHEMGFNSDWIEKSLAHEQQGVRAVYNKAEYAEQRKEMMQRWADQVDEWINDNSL
The conditions noted are these: HEK293T inversion; background 0.2565.

Data set [6] concerns T6, Rec4 WP_006719234.1 (Aggregatibacter segnis).
T6 sequence: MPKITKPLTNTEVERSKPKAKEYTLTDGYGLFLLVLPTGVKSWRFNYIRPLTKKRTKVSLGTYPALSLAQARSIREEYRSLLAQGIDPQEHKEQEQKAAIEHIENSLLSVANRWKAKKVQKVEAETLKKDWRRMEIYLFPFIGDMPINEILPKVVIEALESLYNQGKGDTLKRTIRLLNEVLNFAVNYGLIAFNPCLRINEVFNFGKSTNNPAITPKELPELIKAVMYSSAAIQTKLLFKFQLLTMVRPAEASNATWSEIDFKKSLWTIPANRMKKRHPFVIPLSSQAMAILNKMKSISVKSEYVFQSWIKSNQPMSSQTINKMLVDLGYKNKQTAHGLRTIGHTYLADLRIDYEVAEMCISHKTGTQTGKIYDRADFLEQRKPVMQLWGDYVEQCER
The note with it: HEK293T inversion; background 0.2565.

Data set [7] concerns T7, Rec5 WP_109859198.1 (Aggregatibacter segnis).
T7 sequence: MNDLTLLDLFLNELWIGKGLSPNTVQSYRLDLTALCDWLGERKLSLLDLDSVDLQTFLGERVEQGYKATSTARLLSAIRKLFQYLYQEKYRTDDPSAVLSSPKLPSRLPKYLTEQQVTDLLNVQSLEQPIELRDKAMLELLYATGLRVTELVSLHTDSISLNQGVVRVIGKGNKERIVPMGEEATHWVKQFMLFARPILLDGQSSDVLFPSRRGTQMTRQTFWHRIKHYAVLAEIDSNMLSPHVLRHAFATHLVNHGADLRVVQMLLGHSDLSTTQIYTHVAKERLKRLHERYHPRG
The note with it: HEK293T inversion; background 0.265.

For data set [8], the system named is T8, Rec6 WP_006717195.1 (Aggregatibacter segnis).
T8 sequence: T7 sequence with G40S, D201N
The conditions noted are these: HEK293T inversion; background 0.2565.

For data set [9], the system named is T9, Rec7 WP_005715799.1 (Aggregatibacter segnis).
T9 sequence: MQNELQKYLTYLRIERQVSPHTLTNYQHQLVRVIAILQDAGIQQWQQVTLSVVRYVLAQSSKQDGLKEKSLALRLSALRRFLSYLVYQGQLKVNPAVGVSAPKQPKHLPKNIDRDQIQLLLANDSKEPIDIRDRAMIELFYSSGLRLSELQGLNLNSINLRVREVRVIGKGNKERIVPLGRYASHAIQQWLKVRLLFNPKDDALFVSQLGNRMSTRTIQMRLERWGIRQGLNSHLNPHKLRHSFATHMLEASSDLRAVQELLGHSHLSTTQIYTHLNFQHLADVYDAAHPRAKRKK
The conditions noted are these: HEK293T inversion; background 0.2565.

The test system of data set [10] is T10, Rec27 WP_021170377.1 (Sporomusa sp.).
T10 sequence: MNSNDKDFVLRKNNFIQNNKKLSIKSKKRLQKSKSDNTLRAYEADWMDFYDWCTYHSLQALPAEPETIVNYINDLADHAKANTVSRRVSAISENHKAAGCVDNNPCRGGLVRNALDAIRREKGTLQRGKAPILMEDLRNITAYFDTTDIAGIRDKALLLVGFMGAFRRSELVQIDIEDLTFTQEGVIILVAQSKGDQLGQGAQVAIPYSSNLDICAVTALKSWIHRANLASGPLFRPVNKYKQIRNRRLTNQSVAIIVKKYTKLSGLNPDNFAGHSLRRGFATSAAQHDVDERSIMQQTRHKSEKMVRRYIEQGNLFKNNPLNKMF
The note with it: HEK293T inversion; background 6.51.

Data set [11] has as its system T11, Rec15 XP_012333305.1 (Plasmodium fragile).
T11 sequence: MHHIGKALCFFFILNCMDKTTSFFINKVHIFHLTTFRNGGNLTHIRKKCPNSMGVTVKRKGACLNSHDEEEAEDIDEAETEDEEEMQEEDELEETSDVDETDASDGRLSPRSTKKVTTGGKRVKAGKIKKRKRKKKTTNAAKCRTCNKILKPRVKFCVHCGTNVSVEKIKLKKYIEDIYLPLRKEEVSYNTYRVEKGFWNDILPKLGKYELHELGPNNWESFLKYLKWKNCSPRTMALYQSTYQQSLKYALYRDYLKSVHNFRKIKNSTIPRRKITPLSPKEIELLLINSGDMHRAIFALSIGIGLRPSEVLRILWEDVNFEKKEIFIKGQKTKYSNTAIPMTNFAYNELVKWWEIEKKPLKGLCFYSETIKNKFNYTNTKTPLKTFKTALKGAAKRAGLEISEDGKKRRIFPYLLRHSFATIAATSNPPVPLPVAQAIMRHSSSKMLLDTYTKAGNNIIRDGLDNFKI
The conditions noted are these: HEK293T inversion; background 2.178.

The test system of data set [12] is T12, Rec10 WP_017746151.1 (Scytonema hofmannii).
T12 sequence: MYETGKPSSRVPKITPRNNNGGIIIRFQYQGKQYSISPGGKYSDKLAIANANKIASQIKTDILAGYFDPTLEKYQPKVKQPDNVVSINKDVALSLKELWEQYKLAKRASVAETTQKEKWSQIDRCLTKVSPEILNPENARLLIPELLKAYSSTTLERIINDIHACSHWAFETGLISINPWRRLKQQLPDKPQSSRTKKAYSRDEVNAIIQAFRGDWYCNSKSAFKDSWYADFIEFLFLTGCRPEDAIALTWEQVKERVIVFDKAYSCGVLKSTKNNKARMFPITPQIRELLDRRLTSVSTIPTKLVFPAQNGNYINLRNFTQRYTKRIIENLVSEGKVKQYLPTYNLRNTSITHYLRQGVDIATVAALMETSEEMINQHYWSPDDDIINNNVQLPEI
The conditions noted are these: HEK293T inversion; background 0.264.

For data set [13], the system named is T13, Rec8 WP_017740000.1 (Scytonema hofmannii).
T13 sequence: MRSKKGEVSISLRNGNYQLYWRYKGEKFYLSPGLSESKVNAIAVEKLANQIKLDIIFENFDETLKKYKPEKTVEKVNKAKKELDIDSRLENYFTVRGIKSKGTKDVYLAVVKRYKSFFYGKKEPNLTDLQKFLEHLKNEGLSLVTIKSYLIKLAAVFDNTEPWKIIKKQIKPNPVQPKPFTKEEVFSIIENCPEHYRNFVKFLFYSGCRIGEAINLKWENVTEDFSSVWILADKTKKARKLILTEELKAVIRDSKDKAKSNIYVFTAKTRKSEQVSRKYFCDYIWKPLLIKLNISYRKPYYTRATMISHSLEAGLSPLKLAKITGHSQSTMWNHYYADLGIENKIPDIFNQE
The conditions noted are these: HEK293T inversion; background 0.264.

Data set [14] concerns T14, Rec9 WP_017744257.1 (Scytonema hofmannii).
T14 sequence: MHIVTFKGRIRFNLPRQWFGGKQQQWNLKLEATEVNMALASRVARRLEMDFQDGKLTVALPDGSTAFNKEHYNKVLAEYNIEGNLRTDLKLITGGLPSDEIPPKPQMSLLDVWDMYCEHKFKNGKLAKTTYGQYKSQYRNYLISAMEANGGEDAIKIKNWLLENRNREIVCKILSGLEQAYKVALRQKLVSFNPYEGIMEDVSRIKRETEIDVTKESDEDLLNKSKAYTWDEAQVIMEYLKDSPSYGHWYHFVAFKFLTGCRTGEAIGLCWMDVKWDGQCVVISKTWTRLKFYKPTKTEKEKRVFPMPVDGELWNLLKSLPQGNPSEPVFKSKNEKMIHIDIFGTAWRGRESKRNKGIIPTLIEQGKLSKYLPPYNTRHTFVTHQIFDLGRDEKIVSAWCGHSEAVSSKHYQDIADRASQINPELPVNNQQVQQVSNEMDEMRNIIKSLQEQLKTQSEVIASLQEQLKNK
The note with it: HEK293T inversion; background 0.264.

Changes are numbered by the printed parent chain.

In data set [1], “TAATGTTCTATANNNNNNNNTATAAAACACTA (double strand) [Rec13 natural site]” yielded an activity of 4.46 % GFP+.
In the case of “CACTGATATATANNNNNNNTATATATCAGTG (double strand) [Rec11-12 natural site]”, the activity in data set [2] was found to be 0.0237 % GFP+; in data set [3] it was 0.031 % GFP+.
For “AATAAAGGGAATNNNNNNNNATTCCCTTTATT (double strand) [Rec2-7 natural site]”, the activity was found to be 0.133 % GFP+ in data set [4]; 0.096 % GFP+ in [5]; 0.134 % GFP+ in [6]; 0.195 % GFP+ in data set [7]; 0.135 % GFP+ in [8]; 0.108 % GFP+ in data set [9].
On to “TAACTAATGATANNNNNNNNNTATCACTAGTTG (double strand) [Rec27 natural site]”, for which the activity in [10] stood at 62.7 % GFP+.
“TGCATATACATANNNNNNNNTATATATATGTA (double strand) [Rec15 natural site]” returned an activity in data set [11] of 5.91 % GFP+.
As for “CAATTTTTGAAANNNNNNNTTTCAAAAATTG (double strand) [Rec8-10 natural site]”, the activity in data set [12] came out at 0.168 % GFP+; in [13], 0.165 % GFP+; in data set [14], 0.133 % GFP+.
